# B1: PksA SAT-KS-MAT tridomain (domain or fragment)
# chain: MAQSRQLFLFGDQTADFVPKLRSLLSVQDSPILAAFLDQSHYVVRAQMLQSMNTVDHKLARTADLRQMVQKYVDGKLTPAFRTALVCLCQLGCFIREYEESGNMYPQPSDSYVLGFCMGSLAAVAVSCSRSLSELLPIAVQTVLIAFRLGLCALEMRDRVDGCSDDRGDPWSTIVWGLDPQQARDQIEVFCRTTNVPQTRRPWISCISKNAITLSGSPSTLRAFCAMPQMAQHRTAPIPICLPAHNGALFTQADITTILDTTPTTPWEQLPGQIPYISHVTGNVVQTSNYRDLIEVALSETLLEQVRLDLVETGLPRLLQSRQVKSVTIVPFLTRMNETMSNILPDSFISTETRTDTGRAIPASGRPGAGKCKLAIVSMSGRFPESPTTESFWDLLYKGLDVCKEVPRRRWDINTHVDPSGKARNKGATKWGCWLDFSGDFDPRFFGISPKEAPQMDPAQRMALMSTYEAMERAGLVPDTTPSTQRDRIGVFHGVTSNDWMETNTAQNIDTYFITGGNRGFIPGRINFCFEFAGPSYTNDTACSSSLAAIHLACNSLWRGDCDTAVAGGTNMIYTPDGHTGLDKGFFLSRTGNCKPYDDKADGYCRAEGVGTVFIKRLEDALADNDPILGVILDAKTNHSAMSESMTRPHVGAQIDNMTAALNTTGLHPNDFSYIEMHGTGTQVGDAVEMESVLSVFAPSETARKADQPLFVGSAKANVGHGEGVSGVTSLIKVLMMMQHDTIPPHCGIKPGSKINRNFPDLGARNVHIAFEPKPWPRTHTPRRVLINNFSAAGGNTALIVEDAPERHWPTEKDPRSSHIVALSAHVGASMKTNLERLHQYLLKNPHTDLAQLSYTTTARRWHYLHRVSVTGASVEEVTRKLEMAIQNGDGVSRPKSKPKILFAFTGQGSQYATMGKQVYDAYPSFREDLEKFDRLAQSHGFPSFLHVCTSPKGDVEEMAPVVVQLAITCLQMALTNLMTSFGIRPDVTVGHSLGEFAALYAAGVLSASDVVYLVGQRAELLQERCQRGTHAMLAVKATPEALSQWIQDHDCEVACINGPEDTVLSGTTKNVAEVQRAMTDNGIKCTLLKLPFAFHSAQVQPILDDFEALAQGATFAKPQLLILSPLLRTEIHEQGVVTPSYVAQHCRHTVDMAQALRSAREKGLIDDKTLVIELGPKPLISGMVKMTLGDKISTLPTLAPNKAIWPSLQKILTSVYTGGWDINWKKYHAPFASSQKVVDLPSYGWDLKDYYIPYQGDWCLHRHQQDCKCAAPGHEIKTADYQVPPESTPHRPSKLDPSKEAFP
# Target: the molecule itself
# Assay: native gel or EMSA
protein,measurement,value
B1,stoichiometry N,2

# Reference: publication PMC2872118 (Nature, 2009)
